This is an account of results in patent US20250011468A1 (Novo Nordisk, published 2025).

Residue numbers refer to the chain shown, from its start.

Holding throughout (test): cell-based or functional assay
In assay [1] the target is T1, human plasma-derived FIXa (Haematologic Technologies Inc) (human, UniProt P00740 47-191; P00740 227-461).
The target of assay [2] is T1, human plasma-derived FIXa (Haematologic …). The source holds these as a separate data set.
For assay [3] the target is unchanged. The source holds these as a separate data set.
The target is the same in assay [4]. This is another data set of the same source.

T1 sequence (P00740 47-191, chain 1 of 2): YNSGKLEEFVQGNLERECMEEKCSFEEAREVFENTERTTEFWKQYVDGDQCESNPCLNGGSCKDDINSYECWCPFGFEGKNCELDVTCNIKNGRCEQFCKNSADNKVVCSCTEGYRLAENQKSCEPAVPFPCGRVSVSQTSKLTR
T1 sequence (P00740 227-461, chain 2 of 2): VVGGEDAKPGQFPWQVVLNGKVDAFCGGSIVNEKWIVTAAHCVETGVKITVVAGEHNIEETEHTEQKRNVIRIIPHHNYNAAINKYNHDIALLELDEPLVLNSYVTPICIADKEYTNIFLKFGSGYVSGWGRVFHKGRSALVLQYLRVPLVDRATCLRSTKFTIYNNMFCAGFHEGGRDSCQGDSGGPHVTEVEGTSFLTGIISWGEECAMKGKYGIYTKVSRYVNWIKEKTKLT

B1: mAb1-4707 (antibody, V domains shown)
VH: EVQLVESGGGLVQPGRSLRLSCAASGFTFGDYAMHWVRQAPGKGLEWVSGISWVSGSIGYARSVKGRFTISRDNAKNSLYLQMNSLRAEDTALYYCAKGQYDEDAGMDVWGQGTTVTVSS
VL: DIQMTQSPSSLSASVGDRVTITCRASQSIRSYLNWYQQKPGKAPKLLIYAASSLQSGVPSRFSGSGSGTDFTLTISSLQPEDFATYYCQQGYPTWTFGGGTKVEIK
Regarding B1, in assay [1], the “Peak stimulatory activity relative to 224F3” value is 35.9 fold relative to 224F3. In assay [2], the “FXa generation rate at 3.2 nM mAb” value is 662 pM/min, the “FXa generation rate at 6.3 nM mAb” value turned out to be 714 pM/min, the “FXa generation rate at 12.5 nM mAb” value is 697 pM/min and the “FXa generation rate at 25 nM mAb” value was determined as 685 pM/min. Moreover, in assay [2], the “FXa generation rate at 50 nM mAb” value was found to be 629 pM/min, the “FXa generation rate at 100 nM mAb” value stood at 581 pM/min and the “FXa generation rate at 200 nM mAb” value was 586 pM/min.

B2: mAb1-4763 (antibody, V domains shown)
VH: B1 VH with V54N, R62K
VL: B1 VL with S28W, R30S, Q55P
Turning to B2, in assay [1], the “Peak stimulatory activity relative to 224F3” value is 20 fold relative to 224F3. In assay [2], the “FXa generation rate at 3.2 nM mAb” value stood at 370 pM/min, the “FXa generation rate at 6.3 nM mAb” value is 390 pM/min, the “FXa generation rate at 12.5 nM mAb” value came to 381 pM/min and the “FXa generation rate at 25 nM mAb” value came out at 373 pM/min. For the same molecule, in assay [2], the “FXa generation rate at 50 nM mAb” value is 369 pM/min, the “FXa generation rate at 100 nM mAb” value amounted to 375 pM/min and the “FXa generation rate at 200 nM mAb” value turned out to be 401 pM/min.

B3: mAb1-4857 (antibody, V domains shown)
VH: EVQLVESGGGLVQPGRSLKLSCAASGFTFDDYAMHWVRQVPGKGLEWVSGISWRGDIIGYVDSVKGRFTISRDNAKNSLYLQLNSLRAEDTALYYCVKSYGSGSFYNAFDSWGQGTLVTVSS
VL: DIQMTQSPSTLSASAGDRVTITCRASQSISSWLAWYQQKPGKAPKFLIYKASRLERGVPSRFSGSGSGTEFSLTISSLQPDDFATYYCLEYSSYIRTFGQGTKVEIK
Turning to B3, the “Peak stimulatory activity relative to 224F3” value in assay [1] is 66.5 fold relative to 224F3. Further, in assay [2], the “FXa generation rate at 3.2 nM mAb” value was found to be 302 pM/min, the “FXa generation rate at 6.3 nM mAb” value turned out to be 491 pM/min, the “FXa generation rate at 12.5 nM mAb” value was found to be 685 pM/min and the “FXa generation rate at 25 nM mAb” value stood at 1000 pM/min. In assay [2], the “FXa generation rate at 50 nM mAb” value was 1190 pM/min, the “FXa generation rate at 100 nM mAb” value amounted to 1260 pM/min and the “FXa generation rate at 200 nM mAb” value is 1300 pM/min.

B4: mAb4-7687 (bispecific, mAb1-6037/mAb1-6723) (bispecific antibody, V domains shown)
VH 1: B3 VH
VL 1: B3 VL with S31E, E55D
VH 2: EVQLVQSGAEVKKPGESLRISCKGSGYSFTTSWIVWVRQMPGKGLEWMGMIDPSDSFTSYSPSFQGHVTISADKSISTAYLQWSSLKASDTAMYYCARLHYYHSEEFDVWGQGTLVTVSS
VL 2: EIVLTQSPGTLSLSPGERATLSCRASQSVSSSYLAWYQQKPGQAPRLLIYGASSRARGIPDRFSGSGSGTDFTLTISRLEPEDFAVYYCQQFGSSRLFTFGQGTKLEIK
With B4, the “Maximum stimulation (fold), at 1650 nM BiAb” value in assay [3] was 2490 fold.

B5: mAb5-1409 (bispecific, mAb1-8768/mAb1-7503) (bispecific antibody, V domains shown)
VH 1: B3 VH with D30H
VL 1: B3 VL with E55D, V58T
VH 2: B4 VH 2
VL 2: B4 VL 2 with A56T, Q102E
As to B5, the “Maximum stimulation (fold), at 1115 nM BiAb” value in assay [3] came out at 11000 fold.

B6: mAb4-7786 (bispecific, mAb1-6081/mAb1-6463) (bispecific antibody, V domains shown)
VH 1: B3 VH with D30H
VL 1: B3 VL with E55D
VH 2: not shown
VL 2: not shown
Turning to B6, the “Maximum stimulation (fold), at 4060 nM BiAb” value in assay [3] was found to be 1270 fold.

B7: mAb4-5925 (bispecific, mAb1-4857/mAb1-6723) (bispecific antibody, V domains shown)
VH 1: B3 VH
VL 1: B3 VL
VH 2: B4 VH 2
VL 2: B4 VL 2
As to B7, the “Maximum stimulation (fold), at 533 nM BiAb” value in assay [3] worked out at 5200 fold.

B8: mAb5-0057 (bispecific, mAb1-8768/mAb1-6723) (bispecific antibody, V domains shown)
VH 1: B3 VH with D30H
VL 1: B3 VL with E55D, V58T
VH 2: B4 VH 2
VL 2: B4 VL 2
Consider B8, for which the “Maximum stimulation (fold), at 1218 nM BiAb” value in assay [3] is 10800 fold.

B9: mAb1-4071 (antibody, V domains shown)
VH: EVQLVQSGAEVKKPGESLRISCKGSGYSFTPYWIGWVRQMPGKGLEWMGMIDPSDSYTDYGPSFRGHVTISADKSISTAYLQWSSLKASDTAMYYCARVRIREGAFDIWGQGTMVTVSS
VL: DIVMTQSPLSLPVTPGEPASISCRSSQRLLHSTGYNYLNWYLQKPGQSPQLLIYLGSRRASGVPDRFSGSGSGTDFTLKISRVEAEDVGVYYCMQALHIPYTFGQGTKLEIK
Take B9: the “Peak stimulatory activity relative to 224F3” value in assay [1] was 10.4 fold relative to 224F3. Further, in assay [2], the “FXa generation rate at 3.2 nM mAb” value came out at 43 pM/min, the “FXa generation rate at 6.3 nM mAb” value is 65 pM/min, the “FXa generation rate at 12.5 nM mAb” value is 97 pM/min and the “FXa generation rate at 25 nM mAb” value came to 131 pM/min. For the same molecule, in assay [2], the “FXa generation rate at 50 nM mAb” value was determined as 173 pM/min, the “FXa generation rate at 100 nM mAb” value was 198 pM/min and the “FXa generation rate at 200 nM mAb” value came to 208 pM/min.

B10: mAb4-5337 (monovalent one-armed version of mAb1-6566) (antibody, V domains shown)
VH: B9 VH with T30R, R65E, E103A
VL: B9 VL with R28S, S32R, G34W, S57R, R58N, A96V
For B10, the “Stimulation index at 204 nM OA antibody” value in assay [4] worked out at 690 fold.

B11: mAb4-5342 (monovalent one-armed version of mAb1-6586) (antibody, V domains shown)
VH: B9 VH with S28R, P31S, S54T, R65H, V99M, R102M, E103S
VL: B9 VL with R28S, G34W, S57K, R58N, A96V
For the molecule B11, in assay [4], the “Stimulation index at 800 nM OA antibody” value turned out to be 94 fold.

B12: mAb4-5344 (monovalent one-armed version of mAb1-6592) (antibody, V domains shown)
VH: B9 VH with T30R, E103A
VL: B9 VL with R28S, G34W, A96V
As to B12, the “Stimulation index at 800 nM OA antibody” value in assay [4] worked out at 916 fold.

B13: mAb4-5347 (monovalent one-armed version of mAb1-6582) (antibody, V domains shown)
VH: B9 VH with T30R, R65E, E103A
VL: B9 VL with R28S, G34W, S57K, R58N, A96V
Consider B13, for which, in assay [4], the “Stimulation index at 800 nM OA antibody” value came out at 692 fold.

B14: mAb4-7762 (bispecific, mAb1-6584/mAb1-6738) (bispecific antibody, V domains shown)
VH 1: B9 VH with T30R, E103A
VL 1: B9 VL with R28S, G34W, S57K, R58N, A96V
VH 2: EVQLVESGGGLVKPGGSLRLSCAASGFTFSDAWMNWVRQAPGKGLEWVGRIKRKTDGGTTDYAAPVKGRFTISRDDSKNTLYLQMDSLKTEDTAVYYCTTDGIAVAGPLRVYWGQGTLVTVSS
VL 2: not shown
For B14, the “Maximum stimulation (fold), at 109 nM BiAb” value in assay [3] was determined as 3190 fold.

B15: mAb4-5355 (monovalent one-armed version of mAb1-6584) (antibody, V domains shown)
VH: B9 VH with T30R, E103A
VL: B9 VL with R28S, G34W, S57K, R58N, A96V
For B15, the “Stimulation index at 800 nM OA antibody” value in assay [4] was 580 fold.

B16: mAb4-7756 (bispecific, mAb1-6584/mAb1-6723) (bispecific antibody, V domains shown)
VH 1: B9 VH with T30R, E103A
VL 1: B9 VL with R28S, G34W, S57K, R58N, A96V
VH 2: B4 VH 2
VL 2: B4 VL 2
On to B16, for which, in assay [3], the “Maximum stimulation (fold), at 1520 nM BiAb” value was found to be 2600 fold.

B17: mAb4-7789 (bispecific, mAb1-6584/mAb1-6463) (bispecific antibody, V domains shown)
VH 1: B9 VH with T30R, E103A
VL 1: B9 VL with R28S, G34W, S57K, R58N, A96V
VH 2: not shown
VL 2: not shown
Turning to B17, the “Maximum stimulation (fold), at 253 nM BiAb” value in assay [3] came to 3530 fold.

B18: mAb4-5357 (monovalent one-armed version of mAb1-6590) (antibody, V domains shown)
VH: B9 VH with T30R, R65E, E103A
VL: B9 VL with R28S, G34W, A96V
With B18, the “Stimulation index at 800 nM OA antibody” value in assay [4] was found to be 1290 fold.

B19: mAb4-7758 (bispecific, mAb1-6584/mAb1-6097) (bispecific antibody, V domains shown)
VH 1: B9 VH with T30R, E103A
VL 1: B9 VL with R28S, G34W, S57K, R58N, A96V
VH 2: B14 VH 2 with D31N, W33H, D86N
VL 2: not shown
As to B19, the “Maximum stimulation (fold), at 633 nM BiAb” value in assay [3] amounted to 2810 fold.

B20: mAb1-4624 (antibody, V domains shown)
VH: B9 VH with S28R, P31S, S54T, R102M, E103S
VL: B9 VL with R28S, G34W, R58N, A96V
In the case of B20, the “Peak stimulatory activity relative to 224F3” value in assay [1] is 50.1 fold relative to 224F3. Also, in assay [2], the “FXa generation rate at 3.2 nM mAb” value is 383 pM/min, the “FXa generation rate at 6.3 nM mAb” value was found to be 550 pM/min, the “FXa generation rate at 12.5 nM mAb” value was found to be 752 pM/min and the “FXa generation rate at 25 nM mAb” value amounted to 851 pM/min. For the same molecule, in assay [2], the “FXa generation rate at 50 nM mAb” value amounted to 989 pM/min, the “FXa generation rate at 100 nM mAb” value is 1000 pM/min and the “FXa generation rate at 200 nM mAb” value was 960 pM/min.
